Data published in PMC4743974, “Xenobiotic Compounds Degradation by Heterologous Expression of a Trametes sanguineus Laccase in Trichoderma atroviride” (PLoS ONE, 2016).

Substrate: CCn1c(=NN=c2sc3cc(S(=O)(=O)O)ccc3n2CC)sc2cc(S(=O)(=O)O)ccc21
Experiment: purified protein
Format: biochemical, Trametes sanguinea
Details: 100 mM sodium succinate pH 4, room temperature (routine assay conditions)

B1: Recombinant Lcc (TaLcc3 laccase) (Trametes sanguinea) (protein)
chain: AIGPKADLVISDAVVNPDGTPRDAVVVNGAFPGPLISGKKGDHFQLNVINKLTNHTMLKTTSIHWHGLFQEHTNWADGPAFVNQCPIASGHSFLYDFHVPDQAGTYWYHSHLSTQYCDGLRGPLVVYDPHDPQAHLYDVDNDDTVITLADWYHVAAKVGPQFPRGADSTLINGRGRAASDSTAELTVITVEHGKRYRFRLVSISCDPNHTFSIDGHNMTIIEVEGVNSKPLTVDSIQIFAAQRYSFMLNANQPVDNYWIRANPSGGTVGFEGGINSAILRYKGAPDAEPTNTTAPTSVIPLVETNLHPLKPMQVPGRSGIGNVDYAKTLNFNFNGTNFFINNATFTPPTVPVLLQILSGAHSAQDLLPPGSVYTLPPHSAIEITMPATTMAPGSPHPFHLHGHVFAVVRSAGSTEYNYHDPIFRDVVSTGQPGDSVTIRFMTDNPGPWFLHCHIDFHLEAGFAIVFAEDVNEIKYANPVPPSWAELCPIYDKLPESDH
notes: full cDNA with native signal peptide (predicted cleaved between residues 20 and 21), no tag mentioned; secreted by Trichoderma atroviride IMI206040 strain Talcc3; purified; ORF 1557 bp, 519 amino acids
  Km: 48.10 ± 4.9 µM
  kcat: 69.7 ± 3.47 s⁻¹
  kcat/Km: 1.44e+06 M⁻¹ s⁻¹
